# Measurements taken from US20210292396A1 (INTERNATIONAL AIDS VACCINE INITIATIVE, published 2021).
# Changes are numbered by the printed parent chain.
# B1: PGT-121 (antibody, V domains shown)
# VH: QMQLQESGPGLVKPSETLSLTCSVSGASISDSYWSWIRRSPGKGLEWIGYVHKSGDTNYSPSLKSRVNLSLDTSKNQVSLSLVAATAADSGKYYCARTLHGRRIYGIVAFNEWFTYFYMDVWGNGTQVTVSS
# VL: SDISVAPGETARISCGEKSLGSRAVQWYQHRAGQAPSLIIYNNQDRPSGIPERFSGSPDSPFGTTATLTITSVEAGDEADYYCHIWDSRVPTKWVFGGGTTLTVLG
# B2: ePGT121.15.H1.L1 (antibody, V domains shown)
# VH: QMQLQESGPGLVKPGETLSLTCSVSGASISSSYWSWLRETPGKGLEWIGYTHHSGDTNYAPSLKSRVHLGLHPSKNQVSLSLTSVTAADTAVYYCARTLHGRRIYGVVAFNEWFTYFYWEVWGNGTQVTVSS
# VL: SDISVAPGETVRISCGGESIGSRAVQWYQHRAGQAPKLIIYNNQDRPPGIPERFSGSPDIDFGTTATLTITNVEAGDEATYYCHIWDSRRPTNWVFGGGTTLTVL
# B3: ePGT121.15.H6.L1 (antibody, V domains shown)
# VH: B2 VH with W113F, N124K
# VL: B2 VL
# Tests used:
# Assay in all cases: cell-based or functional assay
# [1] = target: HIV Env of isolate 928-28 (HIV)
# [2] = target: HIV Env of isolate T250-4 (HIV)
# [3] = target: HIV Env of isolate T251-18 (HIV)
# [4] = target: HIV Env of isolate 235-47 (HIV)
# [5] = target: HIV Env of isolate BJOX009000.02.4 (HIV)
# [6] = target: HIV Env of isolate X1193_c1 (HIV)
# [7] = target: HIV Env of isolate X1254_c3 (HIV)
# [8] = target: HIV Env of isolate X2088_c9 (HIV)
# [9] = target: HIV Env of isolate P1981_C5_3 (HIV)
# [10] = target: HIV Env of isolate A07412M1.vrc12 (HIV)
# [11] = target: HIV Env of isolate 3817.v2.c59 (HIV)
# [12] = target: HIV Env of isolate 6952.v1.c20 (HIV)
# [13] = target: HIV Env of isolate 6811.v7.c18 (HIV)
# [14] = target: HIV Env of isolate 3301.v1.c24 (HIV)
# [15] = target: HIV Env of isolate 0815.v3.c3 (HIV)
# [16] = target: HIV Env of isolate P0402_C2_11 (HIV)
# HIV Env of isolate PVO.4 = HIV Env of isolate PVO.4 (HIV)
# [17] = target: HIV Env of isolate TRO.11 (HIV)
# [18] = target: HIV Env of isolate AC10.0.29 (HIV)
# [19] = target: HIV Env of isolate TRJO4551.58 (HIV)
# [20] = target: HIV Env of isolate WEAU_d15_410_5017 (HIV)
# [21] = target: HIV Env of isolate 1006_11_C3_1601 (HIV)
# [22] = target: HIV Env of isolate 1054_07_TC4_1499 (HIV)
# [23] = target: HIV Env of isolate 1056_10_TA11_1826 (HIV)
# [24] = target: HIV Env of isolate 6244_13_B5_4576 (HIV)
# [25] = target: HIV Env of isolate SC05_8C11_2344 (HIV)
# [26] = target: HIV Env of isolate Du172.17 (HIV)
# [27] = target: HIV Env of isolate Du422.1 (HIV)
# [28] = target: HIV Env of isolate ZM214M.PL15 (HIV)
# [29] = target: HIV Env of isolate ZM53M.PB12 (HIV)
# [30] = target: HIV Env of isolate ZM109F.PB4 (HIV)
# [31] = target: HIV Env of isolate ZM135M.PL10a (HIV)
# [32] = target: HIV Env of isolate CAP210.2.00.E8 (HIV)
# [33] = target: HIV Env of isolate HIV-16845-2.22 (HIV)
# [34] = target: HIV Env of isolate ZM247v1(Rev-) (HIV)
# [35] = target: HIV Env of isolate 1394C9G1(Rev-) (HIV)
# [36] = target: HIV Env of isolate Ce704809221_1B3 (HIV)
# HIV Env of isolate CNE20 = HIV Env of isolate CNE20 (HIV)
# HIV Env of isolate CNE21 = HIV Env of isolate CNE21 (HIV)
# HIV Env of isolate CNE17 = HIV Env of isolate CNE17 (HIV)
# HIV Env of isolate CNE30 = HIV Env of isolate CNE30 (HIV)
# HIV Env of isolate CNE52 = HIV Env of isolate CNE52 (HIV)
# HIV Env of isolate CNE53 = HIV Env of isolate CNE53 (HIV)
# HIV Env of isolate CNE58 = HIV Env of isolate CNE58 (HIV)
# [37] = target: HIV Env of isolate 0260.v5.c36 (HIV)
binder,measurement,setting,value
B1,neutralization (Table 6 value),[1],0.836
same,neutralization (Table 6 value),[2],0.00021
same,neutralization (Table 6 value),[3],1.16
same,neutralization (Table 6 value),[4],0.0457
same,neutralization (Table 6 value),[5],0.243
same,neutralization (Table 6 value),[6],0.000417
same,neutralization (Table 6 value),[7],0.0206
same,neutralization (Table 6 value),[8],0.00214
same,neutralization (Table 6 value),[9],0.00146
same,neutralization (Table 6 value),[10],0.00949
same,neutralization (Table 6 value),[11],0.00949
same,neutralization (Table 6 value),[12],0.000292
same,neutralization (Table 6 value),[13],0.00125
same,neutralization (Table 6 value),[14],0.00869
same,neutralization (Table 6 value),[15],7.9e-05
same,neutralization (Table 6 value),[16],0.000423
same,neutralization (Table 6 value),HIV Env of isolate PVO.4,0.115
same,neutralization (Table 6 value),[17],0.00843
same,neutralization (Table 6 value),[18],0.029
same,neutralization (Table 6 value),[19],0.406
same,neutralization (Table 6 value),[20],0.0144
same,neutralization (Table 6 value),[21],0.00382
same,neutralization (Table 6 value),[22],0.0334
same,neutralization (Table 6 value),[23],0.0162
same,neutralization (Table 6 value),[24],0.14
same,neutralization (Table 6 value),[25],0.0278
same,neutralization (Table 6 value),[26],0.0316
same,neutralization (Table 6 value),[27],0.00172
same,neutralization (Table 6 value),[28],0.119
same,neutralization (Table 6 value),[29],0.00038
same,neutralization (Table 6 value),[30],0.558
same,neutralization (Table 6 value),[31],1.32
same,neutralization (Table 6 value),[32],0.618
same,neutralization (Table 6 value),[33],0.25
same,neutralization (Table 6 value),[34],0.0114
same,neutralization (Table 6 value),[35],0.122
same,neutralization (Table 6 value),[36],0.028
same,neutralization (Table 6 value),HIV Env of isolate CNE20,0.00147
same,neutralization (Table 6 value),HIV Env of isolate CNE21,0.00525
same,neutralization (Table 6 value),HIV Env of isolate CNE17,0.225
same,neutralization (Table 6 value),HIV Env of isolate CNE30,0.00313
same,neutralization (Table 6 value),HIV Env of isolate CNE52,1.94
same,neutralization (Table 6 value),HIV Env of isolate CNE53,0.00701
same,neutralization (Table 6 value),HIV Env of isolate CNE58,1.28
same,neutralization (Table 6 value),[37],0.00144
B2,neutralization (Table 6 value),[1],0.0868
same,neutralization (Table 6 value),[2],0.000854
same,neutralization (Table 6 value),[3],0.0274
same,neutralization (Table 6 value),[4],0.0061
same,neutralization (Table 6 value),[5],0.0255
same,neutralization (Table 6 value),[6],0.000256
same,neutralization (Table 6 value),[7],0.00299
same,neutralization (Table 6 value),[8],0.00147
same,neutralization (Table 6 value),[9],0.00069
same,neutralization (Table 6 value),[10],0.000964
same,neutralization (Table 6 value),[11],0.00495
same,neutralization (Table 6 value),[12],0.00081
same,neutralization (Table 6 value),[13],0.00109
same,neutralization (Table 6 value),[14],0.00166
same,neutralization (Table 6 value),[15],0.00167
same,neutralization (Table 6 value),[16],0.00268
same,neutralization (Table 6 value),HIV Env of isolate PVO.4,0.0044
same,neutralization (Table 6 value),[17],0.00156
same,neutralization (Table 6 value),[18],0.00272
same,neutralization (Table 6 value),[19],0.00359
same,neutralization (Table 6 value),[20],0.00209
same,neutralization (Table 6 value),[21],0.00195
same,neutralization (Table 6 value),[22],0.00167
same,neutralization (Table 6 value),[23],0.00391
same,neutralization (Table 6 value),[24],0.00697
same,neutralization (Table 6 value),[25],0.00762
same,neutralization (Table 6 value),[26],0.0024
same,neutralization (Table 6 value),[27],0.00243
same,neutralization (Table 6 value),[28],0.0146
same,neutralization (Table 6 value),[29],0.00206
same,neutralization (Table 6 value),[30],2.15
same,neutralization (Table 6 value),[31],0.11
same,neutralization (Table 6 value),[32],0.0229
same,neutralization (Table 6 value),[33],0.0209
same,neutralization (Table 6 value),[34],0.00158
same,neutralization (Table 6 value),[35],0.00403
same,neutralization (Table 6 value),[36],0.00162
same,neutralization (Table 6 value),HIV Env of isolate CNE20,0.000933
same,neutralization (Table 6 value),HIV Env of isolate CNE21,0.000929
same,neutralization (Table 6 value),HIV Env of isolate CNE17,0.0106
same,neutralization (Table 6 value),HIV Env of isolate CNE30,0.00299
same,neutralization (Table 6 value),HIV Env of isolate CNE52,0.0515
same,neutralization (Table 6 value),HIV Env of isolate CNE53,0.00288
same,neutralization (Table 6 value),HIV Env of isolate CNE58,0.00795
same,neutralization (Table 6 value),[37],0.00247
B3,neutralization (Table 6 value),[1],0.0852
same,neutralization (Table 6 value),[2],0.000789
same,neutralization (Table 6 value),[3],0.0274
same,neutralization (Table 6 value),[4],0.00363
same,neutralization (Table 6 value),[5],0.0166
same,neutralization (Table 6 value),[6],0.000518
same,neutralization (Table 6 value),[7],0.00272
same,neutralization (Table 6 value),[8],0.00108
same,neutralization (Table 6 value),[9],0.000543
same,neutralization (Table 6 value),[10],0.00204
same,neutralization (Table 6 value),[11],0.00361
same,neutralization (Table 6 value),[12],0.000793
same,neutralization (Table 6 value),[13],0.00114
same,neutralization (Table 6 value),[14],0.00134
same,neutralization (Table 6 value),[15],0.00022
same,neutralization (Table 6 value),[16],0.0015
same,neutralization (Table 6 value),HIV Env of isolate PVO.4,0.00517
same,neutralization (Table 6 value),[17],0.0014
same,neutralization (Table 6 value),[18],0.00278
same,neutralization (Table 6 value),[19],0.00673
same,neutralization (Table 6 value),[20],0.00205
same,neutralization (Table 6 value),[21],0.00214
same,neutralization (Table 6 value),[22],0.00129
same,neutralization (Table 6 value),[23],0.00186
same,neutralization (Table 6 value),[24],0.0055
same,neutralization (Table 6 value),[25],0.00473
same,neutralization (Table 6 value),[26],0.00203
same,neutralization (Table 6 value),[27],0.00264
same,neutralization (Table 6 value),[28],0.00993
same,neutralization (Table 6 value),[29],0.00204
same,neutralization (Table 6 value),[30],0.742
same,neutralization (Table 6 value),[31],0.168
same,neutralization (Table 6 value),[32],0.0311
same,neutralization (Table 6 value),[33],0.0283
same,neutralization (Table 6 value),[34],0.00191
same,neutralization (Table 6 value),[35],0.00288
same,neutralization (Table 6 value),[36],0.00231
same,neutralization (Table 6 value),HIV Env of isolate CNE20,0.00133
same,neutralization (Table 6 value),HIV Env of isolate CNE21,0.00124
same,neutralization (Table 6 value),HIV Env of isolate CNE17,0.0101
same,neutralization (Table 6 value),HIV Env of isolate CNE30,0.00289
same,neutralization (Table 6 value),HIV Env of isolate CNE52,0.0784
same,neutralization (Table 6 value),HIV Env of isolate CNE53,0.00306
same,neutralization (Table 6 value),HIV Env of isolate CNE58,0.0145
same,neutralization (Table 6 value),[37],0.00217
